Results from article PMC5617202, “Structural and functional insights into the reaction specificity of catalase-related hydroperoxide lyase: A shift from lyase activity to allene oxide synthase by site-directed mutagenesis” (PLoS ONE, 2017).
Where a chain is given by its changes, count along the chain named. In names and notes the source's numbering stands.

B1: C. imbricata cAOS (cAOS-H4 domain) (Capnella imbricata) (protein)
chain: MTWKNFGFDIFAERFGKDKLEKRIKDERTPPPDSPVFGGLTLRMKIEKFKTLFTLGTTLKGFRRATHTVGTGGIGEVTVVDDPKFPEHEFFKAGRKLPVRLRHANLKYPDDAGADARSFSIKFSDNDSESPLDIVMNTGEANIFWHTSSLEDFVPVKEGDSAKEYVYKNPYYYYNLVEALRRAPNTFAHLYYYSQVTMHFKAKDGKERYCRYRAIPGDVDIKEEEESGRLTEEEQRNIWTFSRYETEKRPDDYLRKEYVERLKKGPVNYRLQIQIHDVSPNDTATIFHAGILWDKETHPWFDLAKVSITTPMSPDVLERTNFNIVNQPKSLGLLDAKSPEDYNSIGQIRVSVYNWVQHLRKLKLGSLIPAGQN
notes: N-terminal cAOS domain of the AOS-LOX fusion protein, without the LOX domain; cAOS-H4 (His4 tag) in pET11a; E. coli BL21(DE3), Ni-NTA; heme protein; monomer
B2: C. imbricata cAOS (cAOS-H4 domain) (Capnella imbricata; L150F) (protein)
chain: B1 chain with L150F
notes: as for B1
B3: C. imbricata cHPL (catalase-related hydroperoxide lyase domain) (Capnella imbricata; S177L/Y176N) (protein)
chain: MVWKNFGYEIFAEKFGKDELEKRIKDEHTAPPESPLFGSLKLKMKKEKFKILFTLRTTMEGFRRPTHTVATGGLGEITIVSDPKFPEHEFYRAGRKFPARLRHANLKLLDDAGSDARSFSIKFADNDSESPMDIVMNTGEANIFWNTSSFEDFVSSSAGESAAKEYVYKNPYYYYNLIEALRRAPETFAHLYYYSQLTMHFKAKDGKVRYCRYRAIPGDADIKEEEESGRLTEEEQRNVWIRSRHQNEKRPDDYLRKEYVERLGKGPVNYRLQIQIHEASPDDTATIFHAGIMWNKETHPWFDLAKVSIKTPLSPDVLERTSFNIVNQPESLGLLEAKSPEDYNSIGQIRVAVYKWIQHLRKLKVGSLVPTGQN
notes: N-terminal cHPL domain of the HPL-LOX fusion protein, without the LOX domain; cHPL-His4 in pET11a; E. coli BL21(DE3), Ni-NTA; heme protein; monomer 45 kDa plus oligomers 440-670 kDa
B4: C. imbricata cHPL (catalase-related hydroperoxide lyase domain) (Capnella imbricata; P65A) (protein)
chain: B3 chain with P65A, N176Y, L177S
notes: as for B3
B5: C. imbricata cHPL (catalase-related hydroperoxide lyase domain) (Capnella imbricata; F150L) (protein)
chain: B3 chain with F150L, N176Y, L177S
notes: as for B3
B6: C. imbricata cHPL (catalase-related hydroperoxide lyase domain) (Capnella imbricata; R56G) (protein)
chain: B3 chain with R56G, N176Y, L177S
notes: as for B3
B7: C. imbricata cHPL (catalase-related hydroperoxide lyase domain) (Capnella imbricata; E60K/M59L) (protein)
chain: B3 chain with M59L, E60K, N176Y, L177S
notes: as for B3
B8: C. imbricata cHPL (catalase-related hydroperoxide lyase domain) (Capnella imbricata; I357V) (protein)
chain: B3 chain with N176Y, L177S, I357V
notes: as for B3

Columns and labels:
[1] = biological target: T1, C. imbricata cHPL (catalase-related hydroperoxide lyase domain) (Capnella imbricata, UniProt W8JJ08); experiment: RP-HPLC radiometric product analysis; assay type: biochemical; details: 20 μM [1-14C]-AA-derived 8R-HpETE; labelled compound
T1 construct: gene AOS-LOXb; N-terminal cHPL domain of the HPL-LOX fusion protein, without the LOX domain; cHPL-His4 in pET11a; E. coli BL21(DE3), Ni-NTA; heme protein; monomer 45 kDa plus oligomers 440-670 kDa
T1 sequence (W8JJ08 entry or part of it): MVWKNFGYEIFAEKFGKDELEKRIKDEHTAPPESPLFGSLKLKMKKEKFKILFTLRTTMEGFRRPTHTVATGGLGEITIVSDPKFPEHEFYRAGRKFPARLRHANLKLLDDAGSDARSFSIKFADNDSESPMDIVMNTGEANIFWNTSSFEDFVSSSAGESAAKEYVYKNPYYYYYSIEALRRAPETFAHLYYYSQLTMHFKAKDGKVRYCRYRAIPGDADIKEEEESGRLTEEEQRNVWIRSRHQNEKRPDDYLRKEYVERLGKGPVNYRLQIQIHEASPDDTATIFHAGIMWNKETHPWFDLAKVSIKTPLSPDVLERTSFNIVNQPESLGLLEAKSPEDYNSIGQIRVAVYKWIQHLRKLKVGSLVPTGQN

[2] = substrate: CCCCC/C=C\C/C=C\C=C\[C@@H](C/C=C\CCCC(=O)O)OO; experiment: purified protein; assay type: biochemical, Capnella imbricata; details: 50 mM Tris pH 8.0, 100 mM NaCl, 1 mM CaCl2, 20 °C, 5–50 μM substrate

Molecule	RP-HPLC radiometric product analysis [1]	Km [2] [µM]	kcat [2] [s⁻¹]	kcat/Km [2] [M⁻¹ s⁻¹]
CCCCC/C=C\C/C=C\C=C\[C@@H](C/C=C\CCCC(=O)O)OO [8R-HpETE]	Wt cHPL catalyzes the formation of C8-oxo acid and C12 aldehyde	–	–	–
B1	–	46.6 ± 9.0	1840 ± 196	3.94e+07
B2	–	6.7 ± 1.0	203 ± 8.1	3.03e+07
B3	–	3.9 ± 0.9	218 ± 13.8	5.6e+07
B4	–	15.3 ± 2.5	40.3 ± 2.5	2.6e+06
B5	–	1.8 ± 0.4	49.6 ± 1.5	2.76e+07
B6	–	19.0 ± 4.0	304 ± 22.8	1.6e+07
B7	–	7.3 ± 1.9	7.5 ± 0.6	1e+06
B8	–	5.0 ± 1.0	63.9 ± 3.2	1.28e+07
